Assay results from article PMC2920127 (Nature structural & molecular biology, 2010).

Target: recombinant full-length His-tagged human PABPC1 (human, UniProt P11940 1-636)
Assay: pull-down

Chain of recombinant full-length His-tagged human PABPC1 (P11940 whole entry): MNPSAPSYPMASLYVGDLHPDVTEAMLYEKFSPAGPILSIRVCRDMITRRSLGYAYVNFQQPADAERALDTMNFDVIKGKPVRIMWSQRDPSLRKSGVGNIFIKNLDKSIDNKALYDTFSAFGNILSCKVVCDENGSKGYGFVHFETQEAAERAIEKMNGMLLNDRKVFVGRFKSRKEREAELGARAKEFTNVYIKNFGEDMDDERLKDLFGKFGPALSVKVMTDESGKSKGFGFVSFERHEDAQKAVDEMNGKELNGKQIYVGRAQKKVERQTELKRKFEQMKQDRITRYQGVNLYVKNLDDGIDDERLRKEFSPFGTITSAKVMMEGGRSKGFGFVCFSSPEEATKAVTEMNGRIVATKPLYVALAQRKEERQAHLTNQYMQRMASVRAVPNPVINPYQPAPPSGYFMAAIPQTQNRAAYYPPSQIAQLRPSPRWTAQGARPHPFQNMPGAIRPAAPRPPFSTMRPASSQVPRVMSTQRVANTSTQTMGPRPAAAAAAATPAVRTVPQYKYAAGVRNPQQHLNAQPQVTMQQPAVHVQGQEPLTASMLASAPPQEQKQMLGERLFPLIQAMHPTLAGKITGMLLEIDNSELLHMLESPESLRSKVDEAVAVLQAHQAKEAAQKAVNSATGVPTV

| binding result | Binder |
| --- | --- |
| binds | GST-fused TNRC6C fragment 1364-1601 (domain or fragment, human, UniProt Q9HCJ0-1 1364-1601, looked up) PHSWSRAKSDSDKISNGSSINWPPEFHPGVPWKGLQNIDPENDPDVTPGSVPTGPTINTTIQDVNRYLLKSGGKLSDIKSTWSSGPTSHTQASLSHELWKVPRNSTAPTRPPPGLTNPKPSSTWGASPLGWTSSYSSGSAWSTDTSGRTSSWLVLRNLTPQIDGSTLRTLCLQHGPLITFHLNLTQGNAVVRYSSKEEAAKAQKSLHMCVLGNTTILAEFAGEEEVNRFLAQGQALPP |
| binds | GST-fused TNRC6C fragment 1242-1601 (domain or fragment, human, UniProt Q9HCJ0-1 1242-1601, looked up) PQTPGLPDLQTKEQQSSPNTFAPYPLAGLNPNMNVNSMDMTGGLSVKDPSQSQSRLPQWTHPNSMDNLPSAASPLEQNPSKHGAIPGGLSIGPPGKSSIDDSYGRYDLIQNSESPASPPVAVPHSWSRAKSDSDKISNGSSINWPPEFHPGVPWKGLQNIDPENDPDVTPGSVPTGPTINTTIQDVNRYLLKSGGKLSDIKSTWSSGPTSHTQASLSHELWKVPRNSTAPTRPPPGLTNPKPSSTWGASPLGWTSSYSSGSAWSTDTSGRTSSWLVLRNLTPQIDGSTLRTLCLQHGPLITFHLNLTQGNAVVRYSSKEEAAKAQKSLHMCVLGNTTILAEFAGEEEVNRFLAQGQALPP |
